The source of these data is patent publication US20200330603A1, “PEPTIDES FOR RENAL THERAPY” (FRED HUTCHINSON CANCER RESEARCH CENTER, priority 2015, published 2020).

Data set [1] relates to trypsin. As to the kind of experiment: Peptide stability in the presence of trypsin, RP-HPLC. It is filed as in vitro ADME. As to conditions: 5 μg trypsin, pH 7.0, 30 minutes at 37.5° C. On the procedure: (§1) This example describes peptide stability in the presence of pepsin, trypsin, a reducing agent, or elevated temperature. Peptides were first suspended in 500 µl of ddH2O to a stock concentration of 2 mg/ml. […] These reactions were then quenched with 5 μg of soybean trypsin inhibitor (I) and, in some cases, 10 mM dithiothreitol (DTT). […] Temperature stability was tested by incubating peptides in non-reducing conditions at 70° C. for 1 hour. Stability was evaluated by RP-HPLC.

The test system of data set [2] is pepsin. Description: Peptide stability in the presence of pepsin, RP-HPLC. It counts as in vitro ADME. As to conditions: 20 μg pepsin, pH 1.05, 30 minutes at 37.5° C. Here is the method:
as §1

The nature of data set [3]: Temperature stability at 70° C., RP-HPLC. It is filed as physicochemical. As to conditions: non-reducing conditions, 70° C. for 1 hour. Here is the method:
as §1

Data set [4] is described as follows: Peptide stability to a reducing agent (DTT), RP-HPLC. It counts as physicochemical. As to conditions: 10 mM DTT in PBS, room temperature, 30 minutes. Here is the method:
as §1

The nature of data set [5]: Whole body autoradiography of 14C labeled peptides, renal cortex and blood. Conditions: for Signal ratio Kidney:Blood (3 hours) / Signal ratio Kidney:Blood (24 hours): renal cortex vs blood from the ventricle, 100 nmol iv; for Pixel density-Bkg/area (3 hours) / Pixel density-Bkg/area (24 hours): renal cortex, 100 nmol 14C labeled peptide iv. It counts as in vivo, mice. From the text:
This example describes radiolabeling of peptides of this disclosure. Several knotted peptides were radiolabeled by reductive methylation with ^14C formaldehyde and sodium cyanoborohydride with standard techniques. The sequences were engineered to have the amino acids, “G” and “S” at the N terminus. See Methods in Enzymology V91:1983 p. 570 and JBC 254(11):1979 p. 4359. An excess of formaldehyde was used to ensure complete methylation (dimethylation of every free amine). The labeled peptides were isolated via solid-phase extraction on Strata-X columns (Phenomenex 8B-S100-AAK), rinsed with water with 5% methanol, and recovered in methanol with 2% formic acid. Solvent was subsequently removed in a blowdown evaporator with gentle heat and a stream of nitrogen gas. The final product was verified and characterized by high performance liquid chromatography (HPLC).
This example illustrates accumulation of peptides of the present disclosure in kidneys measured by whole body autoradiography. Peptides of the present disclosure were radiolabeled as described in EXAMPLE 2. 100 nmol of ^14C labeled peptides were administered intravenously in mice. Radiolabeled peptide signal was quantified in the renal cortex and blood from the ventricle in 2-3 sections per mouse in 2 mice total. Whole body autoradiography analysis was performed with AIDA.
SEQ ID NO: 55 and SEQ ID NO: 119 ([…]), a linearized version of SEQ ID NO: 55, were radiolabeled with ^14C as described in EXAMPLE 2 and administered intravenously in mice at a dose of 100 nmol. Radiolabeled peptide signal was quantified in the renal cortex and blood from the ventricle in 2-3 sections per mouse in 2 mice total. Whole body autoradiography analysis was performed with AIDA.

“And” between values parts separate entries of the source, which are not always exact repeats. Equal entries are not always repeated.

Take “GSACLAEYQKCEGSTVPCCPGLSCSAGRFRKTKLCTK [SEQ ID NO: 32]”: the Trypsin result in data set [1] is “Not Resistant”. Further, the Pepsin result in data set [2] is “Resistant”. Also, in data set [3], the “Temperature (70° C.)” value is given as “Resistant”. The Reduction result in data set [4] is “Not Resistant”.
As for “GSACQFWSCNSSCISRGYRQGYCWGIQYKYCQCQ [SEQ ID NO: 34]”, in data set [1], the Trypsin entry is “Partially Resistant”. Further, in data set [4], the Reduction result was “Not Resistant”.
The corresponding values for “GSAEIIRCSGTRECYAPCQKLTGCLNAKCMNKACKCYGCV [SEQ ID NO: 28]” are “Not Resistant” and “Partially Resistant”.
The corresponding values for “GSAVCNLKRCQLSCRSLGLLGKCIGDKCECVKHG [SEQ ID NO: 22]” are “Partially Resistant” and “Not Resistant”.
The corresponding values for “GSCIGEGVPCDENDPRCCFGLVCLKPTLHGIWYKSYYCYKK [SEQ ID NO: 30]” are “Partially Resistant” and “Not Resistant”.
For “GSDCLPHLRRCRADNDCCGRRCRRRGTNAERRCR [SEQ ID NO: 1]”, the Trypsin entry in data set [1] is on record as “Partially Resistant”. Further, the Reduction result in data set [4] is reported as “Not Resistant”.
As for “GSECLEIFKACNPSNDQCCKSSKLVCSRKTRWCKYQIG [SEQ ID NO: 38]”, the Trypsin entry in data set [1] was “Not Resistant”. Also, the Pepsin result in data set [2] is recorded as “Resistant”. In data set [3], the “Temperature (70° C.)” value is recorded as “Resistant”. For the same sequence, the Reduction result in data set [4] is “Not Resistant”.
In the case of “GSEVIRCSGSKQCYGPCKQQTGCTNSKCMNKVCKCYGCG [SEQ ID NO: 8]”, in data set [1], the Trypsin result is listed as “Partially Resistant”. In addition, the “Temperature (70° C.)” value in data set [3] is “Resistant”. In addition, in data set [4], the Reduction entry is reported as “Not Resistant”.
Take “GSGCFGYKCDYYKGCCSGYVCSPTWKWCVRPGPGR [SEQ ID NO: 16]”: the Trypsin entry in data set [1] was “Not Resistant”. In data set [2], the Pepsin entry is given as “Not Resistant”. In addition, the “Temperature (70° C.)” value in data set [3] was “Resistant”. Moreover, the Reduction entry in data set [4] is listed as “Not Resistant”.
Take “GSGDCLPHLRRCRENNDCCSRRCRRRGANPERRCR [SEQ ID NO: 59]”: in data set [5], the “Signal ratio Kidney:Blood (3 hours)” value is given as 31.2, the “Signal ratio Kidney:Blood (24 hours)” value was found to be 6.1, the “Pixel density-Bkg/area (3 hours)” value was 3.47E+07 and the “Pixel density-Bkg/area (24 hours)” value is 2.13E+06.
For “GSGVPINVKCRGSRDCLDPCKKAGMRFGKCINSKCHCTP [SEQ ID NO: 11]”, the Trypsin entry in data set [1] is “Resistant”. Besides, the Pepsin result in data set [2] is listed as “Resistant”. The Reduction entry in data set [4] is “Resistant”.
“GSGVPINVRCRGSRDCLDPCRRAGMRFGRCINSRCHCTP [SEQ ID NO: 55]”: in data set [5], the “Signal ratio Kidney:Blood (3 hours)” value is 42.2 and 42.4; the “Signal ratio Kidney:Blood (24 hours)” value is reported as 10.7; the “Pixel density-Bkg/area (3 hours)” value is on record as 2.73E+07; the “Pixel density-Bkg/area (24 hours)” value came out at 2.25E+06.
On to “GSGVPINVRSRGSRDSLDPSRRAGMRFGRSINSRSHSTP [SEQ ID NO: 119, reference compound]”, for which, in data set [5], the “Signal ratio Kidney:Blood (3 hours)” value stood at 5.1, the “Signal ratio Kidney:Blood (24 hours)” value came to 6.9, the “Pixel density-Bkg/area (3 hours)” value came out at 1.71E+06 and the “Pixel density-Bkg/area (24 hours)” value is 2.41E+06.
Regarding “GSISIGIKCSPSIDLCEGQCRIRKYFTGYCSGDTCHCSG [SEQ ID NO: 7]”, the Trypsin result in data set [1] is given as “Partially Resistant”. Further, the “Temperature (70° C.)” value in data set [3] is on record as “Resistant”. Besides, the Reduction result in data set [4] was “Not Resistant”.
On to “GSNCAGYMRECKEKLCCSGYVCSSRWKWCVLPAPWRR [SEQ ID NO: 25]”, for which the Trypsin result in data set [1] is given as “Partially Resistant”. For the same sequence, the Reduction result in data set [4] is given as “Not Resistant”.
For “GSNFKVEGACSKPCRKYCIDKGARNGKCINGRCHCYY [SEQ ID NO: 19]”, the Trypsin entry in data set [1] is reported as “Partially Resistant”. Further, the Reduction entry in data set [4] is listed as “Not Resistant”.
The matching figures for “GSQFCGTNGKPCVNGQCCGALRCVVTYHYADGVCLKMNP [SEQ ID NO: 23]”: “Partially Resistant” and “Not Resistant”.
In the case of “GSQIDTNVKCSGSSKCVKICIDRYNTRGAKCINGRCTCYP [SEQ ID NO: 27]”, the Trypsin result in data set [1] was “Not Resistant”. In addition, the Pepsin entry in data set [2] is “Not Resistant”. In addition, in data set [3], the “Temperature (70° C.)” value was “Resistant”. Moreover, the Reduction result in data set [4] is reported as “Not Resistant”.
Consider “GSQVQTNVKCQGGSCASVCRREIGVAAGKCINGKCVCYRN [SEQ ID NO: 17]”, for which the Trypsin entry in data set [1] was “Partially Resistant”. Also, the Reduction result in data set [4] is given as “Not Resistant”.
For “GSQVQTNVRCQGGSCASVCRREIGVAAGRCINGRCVCYRN [SEQ ID NO: 58]”, in data set [5], the “Signal ratio Kidney:Blood (3 hours)” value is listed as 9.9, the “Signal ratio Kidney:Blood (24 hours)” value was found to be 4.1, the “Pixel density-Bkg/area (3 hours)” value came to 7.73E+06 and the “Pixel density-Bkg/area (24 hours)” value worked out at 1.30E+06.
“GSQVSTNKKCSNTSQCYKTCEKVVGVAAGKCMNGKCICYP [SEQ ID NO: 37]”: the Trypsin entry in data set [1] is given as “Partially Resistant”. Moreover, the Reduction result in data set [4] is recorded as “Not Resistant”.
The corresponding values for “GSRPTDIKCSASYQCFPVCKSRFGKTNGRCVNGLCDCF [SEQ ID NO: 24]” are “Partially Resistant” and “Resistant”.
The corresponding values for “GSSCAKPGEMCMRIKCCDGQCGCNRGTGRCFCK [SEQ ID NO: 31]” are “Partially Resistant” and “Not Resistant”.
For “GSSCAKPRENCNRMNILCCRGECVCPTFGDCFCYGD [SEQ ID NO: 10]”, in data set [1], the Trypsin entry is on record as “Not Resistant”. The Pepsin entry in data set [2] is “Resistant”. For the same sequence, in data set [3], the “Temperature (70° C.)” value is reported as “Resistant”. For the same sequence, in data set [4], the Reduction result is on record as “Not Resistant”.
“GSSDYCSNDFCFFSCRRDRCARGDCENGKCVCKNCHLN [SEQ ID NO: 29]”: the Trypsin entry in data set [1] was “Partially Resistant”. The Reduction entry in data set [4] is recorded as “Not Resistant”.
With “GSSEKDCIKHLQRCRENKDCCSKKCSRRGTNPEKRCR [SEQ ID NO: 9]”, in data set [1], the Trypsin entry was “Partially Resistant”. Moreover, the Reduction entry in data set [4] is “Not Resistant”.
In the case of “GSSERDCIRHLQRCRENRDCCSRRCSRRGTNPERRCR [SEQ ID NO: 56]”, in data set [5], the “Signal ratio Kidney:Blood (3 hours)” value was 29.9, the “Signal ratio Kidney:Blood (24 hours)” value was determined as 7.5, the “Pixel density-Bkg/area (3 hours)” value stood at 1.48E+07 and the “Pixel density-Bkg/area (24 hours)” value is on record as 2.30E+06.
As to “GSVRIPVSCKHSGQCLKPCKDAGMRFGKCMNGKCDCTPK [SEQ ID NO: 12]”, the Trypsin result in data set [1] is listed as “Not Resistant”. The Reduction entry in data set [4] is given as “Partially Resistant”.
On to “GSVRIPVSCRHSGQCLRPCRDAGMRFGRCMNGRCDCTPR [SEQ ID NO: 57]”, for which, in data set [5], the “Signal ratio Kidney:Blood (3 hours)” value amounted to 8, the “Signal ratio Kidney:Blood (24 hours)” value is recorded as 6.4, the “Pixel density-Bkg/area (3 hours)” value worked out at 4.63E+06 and the “Pixel density-Bkg/area (24 hours)” value worked out at 1.03E+06.
Turning to “GSVVIGQRCYRSPDCYSACKKLVGKATGKCTNGRCDC [SEQ ID NO: 33]”, in data set [1], the Trypsin entry is “Not Resistant”. For the same sequence, the Pepsin result in data set [2] is on record as “Resistant”. Moreover, the “Temperature (70° C.)” value in data set [3] is reported as “Resistant”. In data set [4], the Reduction entry is recorded as “Not Resistant”.
